For the experiment, the system named is KDM4A-I71AzF. Kind of experiment: CASI: photo-crosslinking with HEK293T cell extracts, StrepTactin enrichment and LC-MS/MS proteomics.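 Note: lysates from HEK293T cells pretreated with a KDM4 inhibitor to raise proteome methylation, affinity-purified after ±UV, gel-resolved, trypsin-digested, with exclusive unique peptides per protein averaged per condition.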 The experiment is classed as binding, human. As to conditions: sheet "Final results but with 0.01".

B1: NU155_HUMAN (protein, UniProt O75694 2-1391, looked up)
Nuclear pore complex protein …: PSSLLGAAMPASTSAAALQEALENAGRLIDRQLQEDRMYPDLSELLMVSAPNNPTVSGMSDMDYPLQGPGLLSVPNLPEISSIRRVPLPPELVEQFGHMQCNCMMGVFPPISRAWLTIDSDIFMWNYEDGGDLAYFDGLSETILAVGLVKPKAGIFQPHVRHLLVLATPVDIVILGLSYANLQTGSGVLNDSLSGGMQLLPDPLYSLPTDNTYLLTITSTDNGRIFLAGKDGCLYEVAYQAEAGWFSQRCRKINHSKSSLSFLVPSLLQFTFSEDDPILQIAIDNSRNILYTRSEKGVIQVYDLGQDGQGMSRVASVSQNAIVSAAGNIARTIDRSVFKPIVQIAVIENSESLDCQLLAVTHAGVRLYFSTCPFRQPLARPNTLTLVHVRLPPGFSASSTVEKPSKVHRALYSKGILLMAASENEDNDILWCVNHDTFPFQKPMMETQMTAGVDGHSWALSAIDELKVDKIITPLNKDHIPITDSPVVVQQHMLPPKKFVLLSAQGSLMFHKLRPVDQLRHLLVSNVGGDGEEIERFFKLHQEDQACATCLILACSTAACDREVSAWATRAFFRYGGEAQMRFPTTLPPPSNVGPILGSPVYSSSPVPSGSPYPNPSFLGTPSHGIQPPAMSTPVCALGNPATQATNMSCVTGPEIVYSGKHNGICIYFSRIMGNIWDASLVVERIFKSGNREITAIESSVPCQLLESVLQELKGLQEFLDRNSQFAGGPLGNPNTTAKVQQRLIGFMRPENGNPQQMQQELQRKFHEAQLSEKISLQAIQQLVRKSYQALALWKLLCEHQFTIIVAELQKELQEQLKITTFKDLVIRDKELTGALIASLINCYIRDNAAVDGISLHLQDICPLLYSTDDAICSKANELLQRSRQVQNKTEKERMLRESLKEYQKISNQVDLSNVCAQYRQVRFYEGVVELSLTAAEKKDPQGLGLHFYKHGEPEEDIVGLQAFQERLNSYKCITDTLQELVNQSKAAPQSPSVPKKPGPPVLSSDPNMLSNEEAGHHFEQMLKLSQRSKDELFSIALYNWLIQVDLADKLLQVASPFLEPHLVRMAKVDQNRVRYMDLLWRYYEKNRSFSNAARVLSRLADMHSTEISLQQRLEYIARAILSAKSSTAISSIAADGEFLHELEEKMEVARIQLQIQETLQRQYSHHSSVQDAVSQLDSELMDITKLYGEFADPFKLAECKLAIIHCAGYSDPILVQTLWQDIIEKELSDSVTLSSSDRMHALSLKIVLLGKIYAGTPRFFPLDFIVQFLEQQVCTLNWDVGFVIQTMNEIGVPLPRLLEVYDQLFKSRDPFWNRMKKPLHLLDCIHVLLIRYVENPSQVLNCERRRFTNLCLDAVCGYLVELQSMSSSVAVQAITGNFKSLQAKLERLH
Regarding B1, the “Fold change (+UV/-UV)” value is 1.36.

B2: PR40A_HUMAN (protein, UniProt O75400 1-957, looked up)
Pre-mRNA-processing factor 40 …: MRPGTGAERGGLMVSEMESHPPSQGPGDGERRLSGSSLCSGSWVSADGFLRRRPSMGHPGMHYAPMGMHPMGQRANMPPVPHGMMPQMMPPMGGPPMGQMPGMMSSVMPGMMMSHMSQASMQPALPPGVNSMDVAAGTASGAKSMWTEHKSPDGRTYYYNTETKQSTWEKPDDLKTPAEQLLSKCPWKEYKSDSGKPYYYNSQTKESRWAKPKELEDLEGYQNTIVAGSLITKSNLHAMIKAEESSKQEECTTTSTAPVPTTEIPTTMSTMAAAEAAAAVVAAAAAAAAAAAAANANASTSASNTVSGTVPVVPEPEVTSIVATVVDNENTVTISTEEQAQLTSTPAIQDQSVEVSSNTGEETSKQETVADFTPKKEEEESQPAKKTYTWNTKEEAKQAFKELLKEKRVPSNASWEQAMKMIINDPRYSALAKLSEKKQAFNAYKVQTEKEEKEEARSKYKEAKESFQRFLENHEKMTSTTRYKKAEQMFGEMEVWNAISERDRLEIYEDVLFFLSKKEKEQAKQLRKRNWEALKNILDNMANVTYSTTWSEAQQYLMDNPTFAEDEELQNMDKEDALICFEEHIRALEKEEEEEKQKSLLRERRRQRKNRESFQIFLDELHEHGQLHSMSSWMELYPTISSDIRFTNMLGQPGSTALDLFKFYVEDLKARYHDEKKIIKDILKDKGFVVEVNTTFEDFVAIISSTKRSTTLDAGNIKLAFNSLLEKAEAREREREKEEARKMKRKESAFKSMLKQAAPPIELDAVWEDIRERFVKEPAFEDITLESERKRIFKDFMHVLEHECQHHHSKNKKHSKKSKKHHRKRSRSRSGSDSDDDDSHSKKKRQRSESRSASEHSSSAESERSYKKSKKHKKKSKKRRHKSDSPESDAEREKDKKEKDRESEKDRTRQRSESKHKSPKKKTGKDSGNWDTSGSELSEGELEKRRRTLLEQLDDDQ
Turning to B2, the “Fold change (+UV/-UV)” value is recorded as 0.5.

B3: SRRT_HUMAN (protein, UniProt Q9BXP5 2-876, looked up)
Serrate RNA effector molecule …: GDSDDEYDRRRRDKFRRERSDYDRSRERDERRRGDDWNDREWDRGRERRSRGEYRDYDRNRRERFSPPRHELSPPQKRMRRDWDEHSSDPYHSGYEMPYAGGGGGPTYGPPQPWGHPDVHIMQHHVLPIQARLGSIAEIDLGVPPPVMKTFKEFLLSLDDSVDETEAVKRYNDYKLDFRRQQMQDFFLAHKDEEWFRSKYHPDEVGKRRQEARGALQNRLRVFLSLMETGWFDNLLLDIDKADAIVKMLDAAVIKMEGGTENDLRILEQEEEEEQAGKPGEPSKKEEGRAGAGLGDGERKTNDKDEKKEDGKQAENDSSNDDKTKKSEGDGDKEEKKEDSEKEAKKSSKKRNRKHSGDDSFDEGSVSESESESESGQAEEEKEEAEEALKEKEKPKEEEWEKPKDAAGLECKPRPLHKTCSLFMRNIAPNISRAEIISLCKRYPGFMRVALSEPQPERRFFRRGWVTFDRSVNIKEICWNLQNIRLRECELSPGVNRDLTRRVRNINGITQHKQIVRNDIKLAAKLIHTLDDRTQLWASEPGTPPLPTSLPSQNPILKNITDYLIEEVSAEEEELLGSSGGAPPEEPPKEGNPAEINVERDEKLIKVLDKLLLYLRIVHSLDYYNTCEYPNEDEMPNRCGIIHVRGPMPPNRISHGEVLEWQKTFEEKLTPLLSVRESLSEEEAQKMGRKDPEQEVEKFVTSNTQELGKDKWLCPLSGKKFKGPEFVRKHIFNKHAEKIEEVKKEVAFFNNFLTDAKRPALPEIKPAQPPGPAQILPPGLTPGLPYPHQTPQGLMPYGQPRPPILGYGAGAVRPAVPTGGPPYPHAPYGAGRGNYDAFRGQGGYPGKPRNRMVRGDPRAIVEYRDLDAPDDVDFF
As to B3, the “Fold change (+UV/-UV)” value was found to be 0.5385.

The record behind these values is PMC10540216, “Activity Guided Azide-methyllysine Photo-trapping for Substrate Profiling of Lysine Demethylases” (Journal of the American Chemical Society, 2023).
